In US20130266579A1:

Assays:
[1] = biological target: human epidermal growth factor receptor (EGFR) on cells and tissues (human) (UniProt P00533); experiment: in vivo fluorescence imaging
[2] = biological target: human epidermal growth factor receptor (EGFR) (human) (UniProt P00533); experiment: cell-based or functional assay

Work on control Human IgG (antibody) yielded a fold increase of tumor DL755 signal over 7 days [1] of 3 fold.
Saporin conjugated Y104D/Q111P gave an EC50 for Cell Growth Inhibition (CGI), A431 cells [2] of 2.4 ng/mL and an EC50 for Cell Growth Inhibition (CGI), Keratinocyte (HEK-N) cells [2] of 22.5 ng/mL.
Saporin conjugated Y104D gave an EC50 for Cell Growth Inhibition (CGI), Keratinocyte (HEK-N) cells [2] of 15.8 ng/mL.
